This is an account of results in patent US20090311253A1 (AbbVie / Abbott, published 2009).

Where only a bound is given, the exact number is not on record here.

Experiment [1] has as its target T1, Recombinant Human Dkk-1 (human, UniProt O94907 32-266).
T1 construct: also called DKK-1/His
T1 sequence (looked up): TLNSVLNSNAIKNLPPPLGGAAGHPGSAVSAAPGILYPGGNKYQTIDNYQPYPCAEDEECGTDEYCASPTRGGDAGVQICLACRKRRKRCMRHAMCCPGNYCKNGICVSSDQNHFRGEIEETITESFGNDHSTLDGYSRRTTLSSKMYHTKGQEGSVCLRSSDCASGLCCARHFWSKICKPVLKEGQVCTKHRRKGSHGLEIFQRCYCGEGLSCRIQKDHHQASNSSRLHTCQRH
Description: Biacore SPR. As to the method:
(§1) The BIACORE assay (Biacore, Inc, Piscataway, N.J.) determines the affinity of antibodies or DVD-Ig with kinetic measurements of on-rate and off-rate constants. Binding of antibodies or DVD-Ig to a target antigen (for example, a purified recombinant target antigen) is determined by surface plasmon resonance-based measurements with a BiacoreR 1000 or 3000 instrument (Biacore® AB, Uppsala, Sweden) using running HBS-EP (10 mM HEPES [pH 7.4], 150 mM NaCl, 3 mM EDTA, and 0.005% surfactant P20) at 25° C. All chemicals are obtained from Biacore® AB (Uppsala, Sweden) or otherwise from a different source as described in the text. For example, approximately 5000 RU of goat anti-mouse IgG, (Fcγ), fragment specific polyclonal antibody (Pierce Biotechnology Inc, Rockford, Ill.) diluted in 10 mM sodium acetate (pH 4.5) is directly immobilized across a CM5 research grade biosensor chip using a standard amine coupling kit according to manufacturer's instructions and procedures at 25 μg/ml. Unreacted moieties on the biosensor surface are blocked with ethanolamine. Modified carboxymethyl dextran surface in flowcell 2 and 4 is used as a reaction surface. Unmodified carboxymethyl dextran without goat anti-mouse IgG in flow cell 1 and 3 is used as the reference surface. For kinetic analysis, rate equations derived from the 1:1 Langmuir binding model are fitted simultaneously to association and dissociation phases of all eight injections (using global fit analysis) with the use of Biaevaluation 4.0.1 software. Purified antibodies or DVD-Ig are diluted in HEPES-buffered saline for capture across goat anti-mouse IgG specific reaction surfaces. Antibodies or DVD-Ig to be captured as a ligand (25 μg/ml) are injected over reaction matrices at a flow rate of 5 μl/min. The association and dissociation rate constants, kₒₙ (M⁻¹s⁻¹) and koff (s⁻¹) are determined under a continuous flow rate of 25 μl/min. Rate constants are derived by making kinetic binding measurements at different antigen concentrations ranging from […]. The equilibrium dissociation constant (M) of the reaction between antibodies or DVD-Igs and the target antigen is then calculated from the kinetic rate constants by the following formula: KD=koff/kₒₙ. Binding is recorded as a function of time and kinetic rate constants are calculated.

Experiment [2] has as its target T1, Recombinant Human Dkk-1. Description: direct bind ELISA. As for the experimental part:
(§2) Enzyme Linked Immunosorbent Assays to screen for antibodies that bind a desired target antigen were performed as follows. High bind ELISA plates (Corning Costar # 3369, Acton, Mass.) were coated with 100 μL/well of 10 μg/ml of desired target antigen (R&D Systems, Minneapolis, Minn.) or desired target antigen extra-cellular domain/FC fusion protein (R&D Systems, Minneapolis, Minn.) or monoclonal mouse anti-polyhistidine antibody (R&D Systems # MAB050, Minneapolis, Minn.) in phosphate buffered saline (10×PBS, Abbott Bioresearch Center, Media Prep# MPS-073, Worcester, Mass.) overnight at 4° C. Plates were washed four times with PBS containing 0.02% Tween 20. Plates were blocked by the addition of 300 μL/well blocking solution (non-fat dry milk powder, various retail suppliers, diluted to 2% in PBS) for ½ hour at room temperature. Plates were washed four times after blocking with PBS containing 0.02% Tween 20.
(§3) Plates were washed 4 times with PBS containing 0.02% Tween 20.
(§4) One hundred microliters of enhanced TMB solution (Neogen Corp. #308177, K Blue, Lexington, Ky.) was added to each well and incubated for 10 minutes at room temperature. The reaction was stopped by the addition of 50 μL 1N sulphuric acid. Plates were read spectrophotometrically at a wavelength of 450 nm.

Experiment [3] has as its target T2, Recombinant Human β-NGF (human, UniProt P01138 122-241). Description: Biacore SPR. As for the experimental part:
as §1

Experiment [4] deals with T2, Recombinant Human β-NGF. Description: direct bind ELISA. As to the method: as §2, §3, §4
For orientation: In an ELISA, binding on a coated surface is turned into a signal by an enzyme label.

The target in experiment [5] is T3, CD20 on cells (UniProt P11836 1-297, limits assumed).
T3 construct: whole, on cells
T3 sequence (looked up): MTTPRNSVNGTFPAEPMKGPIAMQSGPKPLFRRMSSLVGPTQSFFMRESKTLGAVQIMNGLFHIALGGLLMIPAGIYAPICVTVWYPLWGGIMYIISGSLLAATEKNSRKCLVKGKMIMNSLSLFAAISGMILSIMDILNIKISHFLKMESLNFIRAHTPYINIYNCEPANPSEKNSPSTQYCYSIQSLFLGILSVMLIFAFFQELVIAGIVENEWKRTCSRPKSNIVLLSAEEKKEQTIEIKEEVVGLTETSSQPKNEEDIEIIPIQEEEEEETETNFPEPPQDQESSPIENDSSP
Description: flow cytometry on cells, 2 µg/mL. As for the experimental part: Stable cell lines overexpressing a cell-surface antigen of interest or human tumor cell lines were harvested from tissue culture flasks and resuspended in phosphate buffered saline (PBS) containing 5% fetal bovine serum (PBS/FBS). Prior to staining, human tumor cells were incubated on ice with (100 μl) human IgG at 5 μg/ml in PBS/FCS. 1−5×10⁵ cells were incubated with antibody or DVD-Ig (2 μg/mL) in PBS/FBS for 30-60 minutes on ice. […] After 30 minutes incubation on ice, cells were washed twice and resuspended in PBS/FBS. Fluorescence was measured using a Becton Dickinson FACSCalibur (Becton Dickinson, San Jose, Calif.).
The geometric mean is the n root of the multiplication product of n fluorescent signals (a1×a2×a3 . . . an). With log-transformed data the geometric mean is used to normalize the weighting of the data distribution.
Background: Flow cytometry measures light scatter and fluorescence of single cells or particles in a stream.

Experiment [6] deals with T4, Recombinant Human TRANCE/RANKL/TNFSF 11 (human, UniProt O14788 69-317).
T4 construct: extracellular domain
T4 sequence (looked up): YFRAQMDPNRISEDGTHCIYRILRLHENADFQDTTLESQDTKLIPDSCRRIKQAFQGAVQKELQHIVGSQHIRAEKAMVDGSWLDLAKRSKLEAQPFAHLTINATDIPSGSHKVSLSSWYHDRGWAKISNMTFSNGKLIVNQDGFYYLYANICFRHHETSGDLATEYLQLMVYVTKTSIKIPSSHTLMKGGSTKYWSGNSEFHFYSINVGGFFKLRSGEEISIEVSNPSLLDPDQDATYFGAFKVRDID
Description: direct bind ELISA. As to the method: as §2, §3, §4

The target of experiment [7] is T5, Recombinant Human SOST (human, UniProt Q9BQB4 24-213).
T5 construct: also called SOST/His; Sclerostin
T5 sequence (looked up): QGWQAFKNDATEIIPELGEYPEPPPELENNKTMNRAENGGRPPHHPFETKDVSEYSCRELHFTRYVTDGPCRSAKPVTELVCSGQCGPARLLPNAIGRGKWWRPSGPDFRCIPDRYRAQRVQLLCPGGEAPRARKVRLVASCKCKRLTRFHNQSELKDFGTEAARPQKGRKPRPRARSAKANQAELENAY
Description: Biacore SPR. As to the method: as §1
On the technique in general: SPR reads the build-up and loss of mass on a sensor chip optically.

Experiment [8] concerns the target T5, Recombinant Human SOST. Put plainly: direct bind ELISA. As for the experimental part:
as §2, §3, §4

Experiment [9] deals with T6, Recombinant Human VEGF (human, UniProt P15692-4 27-191).
T6 construct: also called VEGF165
Description: Biacore SPR. As for the experimental part:
as §1

The target in experiment [10] is T7, Recombinant Human IL-1β (human, UniProt P01584 117-269).
T7 construct: also called IL-1b; IL-1B
Description: Biacore SPR. As to the method: as §1

Experiment [11] addresses T7, Recombinant Human IL-1β. Description: cell-based or functional assay.
In experiment [12] the target is T6, Recombinant Human VEGF. Description: direct bind ELISA. As to the method: as §2, §3, §4
In experiment [13] the target is T7, Recombinant Human IL-1β. Put plainly: direct bind ELISA. As to the method: as §2, §3, §4

T2 sequence (P01138 122-241 limits assumed): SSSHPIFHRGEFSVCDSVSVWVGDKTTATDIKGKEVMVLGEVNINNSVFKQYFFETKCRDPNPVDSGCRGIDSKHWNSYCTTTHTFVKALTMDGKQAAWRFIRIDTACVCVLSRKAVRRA

B1: AB023 (antibody, human IgG1, kappa, V domains shown)
VH: EVQLVESGGGLVQPANSLKLSCAASGFTFSDYAMAWVRQSPKKGLEWVATIIYDGSSTYYRDSVKGRFTISRDNAKSTLYLQMDSLRSEDTATYYCATGLGIATDYFDYWGQGVLVTVSS
VL: DIRMTQSPASLSASLGETVNIECLASEDIYSDLAWYQQKPGKSPQLLIYNANSLQNGVPSRFSGSGSGTQYSLKINSLQSEDVATYFCQQYNNYPPTFGGGTKLELKR
notes: vectors V1 and V2; also called anti-DKK parent antibody
The Kd is the constant that tells how readily two partners part at equilibrium. A word on the koff: it is a measure of how fast the partners let go of each other. As a reminder, the kon is the second-order rate constant of association. A word on the EC50: it is the concentration at which the effect is half-maximal. In the case of B1, in experiment [1], the Kd was under 8.7 pM, the koff worked out at 8.7e-05 s⁻¹ and the kon is over 1e+07 M⁻¹ s⁻¹. The EC50 in [2] is 6.83 nM.

B2: AB020 (antibody, human IgG1, kappa, V domains shown)
VH: QVQLQESGPGLVKPSETLSLTCTVSGFSLIGYDLNWIRQPPGKGLEWIGIIWGDGTTDYNSAVKSRVTISKDTSKNQFSLKLSSVTAADTAVYYCARGGYWYATSYYFDYWGQGTLVTVSS
VL: DIQMTQSPSSLSASVGDRVTITCRASQSISNNLNWYQQKPGKAPKLLIYYTSRFHSGVPSRFSGSGSGTDFTFTISSLQPEDIATYYCQQEHTLPYTFGQGTKLEIKR
notes: vectors V1 and V2; also called anti-NGF parent antibody
As for B2, in [3], the Kd is under 0.926 pM, the koff is under 1e-06 s⁻¹ and the kon turned out to be 1.08e+06 M⁻¹ s⁻¹. In experiment [4], the EC50 is 9 nM.

B3: AB001 (antibody, human IgG1, kappa, V domains shown)
VH: QVQLQQPGAELVKPGASVKMSCKASGYTFTSYNMHWVKQTPGRGLEWIGAIYPGNGDTSYNQKFKGKATLTADKSSSTAYMQLSSLTSEDSAVYYCARSTYYGGDWYFNVWGAGTTVTVSA
VL: QIVLSQSPAILSPSPGEKVTMTCRASSSVSYIHWFQQKPGSSPKPWIYATSNLASGVPVRFSGSGSGTSYSLTISRVEAEDAATYYCQQWTSNPPTFGGGTKLEIKR
notes: vectors V1 (wild type hIgG1 constant) and V2 (kappa); also called anti-CD20 parent antibody
With B3, the “FACS Geometric Mean” value in [5] is 1350.

B4: DVD165 (bispecific antibody, human IgG1, kappa)
heavy: not shown
light: QIVLSQSPAILSPSPGEKVTMTCRASSSVSYIHWFQQKPGSSPKPWIYATSNLASGVPVRFSGSGSGTSYSLTISRVEAEDAATYYCQQWTSNPPTFGGGTKLEIKRTVAAPEIVLTQSPGTLSLSPGERATLSCRASQSVRGRYLAWYQQKPGQAPRLLIYGASSRATGIPDRFSGSGSGTDFTLTISRLEPEDFAVFYCQQYGSSPRTFGQGTKVEIKRTVAAPSVFIFPPSDEQLKSGTASVVCLLNNFYPREAKVQWKVDNALQSGNSQESVTEQDSKDSTYSLSSTLTLSKADYEKHKVYACEVTHQGLSSPVTKSFNRGEC
notes: vectors V1, V2; also called CD-20 and RANKL DVD-Ig
B4: the EC50 in [6] was found to be 0.32 nM. In experiment [5], the “FACS Geometric Mean” value came out at 1890.

B5: AB022 (antibody, human IgG1, kappa, V domains shown)
VH: EVQLQQSGPELVTPGASVKISCKASGYTFTDHYMSWVKQSHGKSLEWIGDINPYSGETTYNQKFKGTATLTVDKSSSIAYMEIRGLTSEDSAVYYCARDDYDASPFAYWGQGTLVTVSA
VL: DVQMIQSPSSLSASLGDIVTMTCQASQGTSINLNWFQQKPGKAPKLLIYGSSNLEDGVPSRFSGSRYGTDFTLTISSLEDEDLATYFCLQHSYLPYTFGGGTKLEIKR
notes: vectors V1 and V2
Turning to B5, in [7], the Kd came to 0.0379 nM, the koff was 2.44e-05 s⁻¹ and the kon worked out at 642000 M⁻¹ s⁻¹. Also, the EC50 in experiment [8] was found to be 0.66 nM.

B6: DVD124 (bispecific antibody, human IgG1, kappa)
heavy: not shown
light: DIQMTQSPSSLSASVGDRVTITCSASQDISNYLNWYQQKPGKAPKVLIYFTSSLHSGVPSRFSGSGSGTDFTLTISSLQPEDFATYYCQQYSTVPWTFGQGTKVEIKRTVAAPEIVLTQSPDFQSVTPKEKVTITCRASQSIGSSLHWYQQKPDQSPKLLIKYASQSFSGVPSRFSGSGSGTDFTLTINSLEAEDAAAYYCHQSSSLPFTFGPGTKVDIKRTVAAPSVFIFPPSDEQLKSGTASVVCLLNNFYPREAKVQWKVDNALQSGNSQESVTEQDSKDSTYSLSSTLTLSKADYEKHKVYACEVTHQGLSSPVTKSFNRGEC
notes: outer AB014, inner AB032; vectors V1, V2
Regarding B6, in experiment [9], the Kd amounted to 0.0467 nM, the koff came out at 4.03e-05 s⁻¹ and the kon amounted to 863000 M⁻¹ s⁻¹. Besides, in experiment [10], the Kd is 1.41 nM, the koff amounted to 9.32e-05 s⁻¹ and the kon was 66000 M⁻¹ s⁻¹. Further, the “IL-1β Neutralization Assay EC50 (MRC5 cells, hIL-8)” value in experiment [11] stood at 3.63 nM. Also, in [12], the EC50 is 3.49 nM. The EC50 in experiment [13] was found to be 459 nM.
